This is an account of results in the DeepSol protein solubility set.

This data set can be described thus: soluble on expression in E. coli; label from the status in PepcDB or PDB records.
For the sequence “MGSDKIHHHHHHMMATSAVEKIDYWQASILKEMELSRAQFTHFAFEKHVHLDYHIGVVCHGGQRYHHRGSEYRLTPGNISTLNPDESHNGQSIADGGYEALVMSLPTSYVQQVGGALNQGELYFSTPILDDPKLRAYFIRLHRQLTLHQANITPLEAETLLLGFISELFYRHGKLRNLPSCQARLSGAQLDNIKQQFHQGLDQEFELEQLALSVDLSKFQFLRQFKAATGMTPHAYLKRLRLEYAKKALMRGDSAISTAYDLGFFDQSHFNKAFKRAFLITPAHFQKRVTP”, the “soluble on expression in E. coli” value is “not soluble”.

Consider “MQVEQRTLNTAAHPFQITAYWLDQISDFETAVDYPIMIICPGGGFTYHSGREEAPIATRMMAAGMHTVVLNYQLIVGDQSVYPWALQQLGATIDWITTQASAHHVDCQRIILAGFSAGGHVVATYNGVATQPELRTRYHLDHYQGQHAAIILGYPVIDLTAGFPTTSAARNQITTDARLWAAQRLVTPASKPAFVWQTATDESVPPINSLKYVQAMLQHQVATAYHLFGSGIHGLALANHVTQKPGKDKYLNDQAAIWPQLALRWLQEQGLLAGNYLEHHHHHH”, for which the “soluble on expression in E. coli” value is “soluble”.

On to “GHMATIHPTAIVDEGARIGAHSRIWHWVHICGGAEIGEGCSLGQNVFVGNRVRIGNRVKIQNNVSVYDNVFLEDDVFCGPSMVFTNVYNPRAAIERKSEYRDTIVRQGATLGANCTVVCGATIGRYAFVGAGAVVNKDVPDFALVVGVPARQIGWMSRHGEQLDLPLRGNAEATCPHTGERYILTDGVCRLA”, for which the “soluble on expression in E. coli” value is on record as “soluble”.

For the sequence “MTEFDNLTWLHGKPQGSGLLKANPEDFVVVEDLGFTPDGEGEHILLRILKNGCNTRFVADALAKFLKIHAREVSFAGQKDKHAVTEQWLCARVPGKEMPDFSAFQLEGCKVLEYARHKRKLRLGALKGNAFTLVLREISDRRDVETRLQAIRDGGVPNYFGAQRFGIGGSNLQGALRWAQSNAPVRDRNKRSFWLSAARSALFNQIVHQRLKKPDFNQVVDGDALQLAGRGSWFVATSEELPELQRRVDEKELMITASLPGSGEWGTQRAALAFEQDAIAQETVLQSLLLREKVEASRRAMLLYPQQLSWNWWDDVTVELRFWLPAGSFATSVVRELINTMGDYAHIAELEHHHHHH”, the “soluble on expression in E. coli” value was “soluble”.

Consider “MSQEHESSFQDPSRDELIQQVKELQIINANQRPEKILQEAFEKINLLVITIDQDGLIVYANEAFLEVIGWEKQRLLGENWKEFLEPGKDKNKEEHIYTLIKKQGFIDQLKRKFLSKEGDYRTIKFNVVIHHPIGNDVHLTTLIGEDIT”, for which the “soluble on expression in E. coli” value was “not soluble”.

For “MESLIGLVNRIQRACTVLGDYGGGTGSNAFNSLWEALPTVAVVGGQSSGKSSVLESIVGRDFLPRGSGIVTRRPLVLQLHKTDDGTEEYAEFLHLPKKQFTDFALVRREIQDETDRITGKNKQISPVPIHLSIYSPNVVNLTLIDLPGLTKVAVEGQPETIAEDIESMVRTYVDKPNCIILAISPANQDIATSDAIKLAKDVDPTGERTFGVLTKLDLMDKGTNALEVLEGRSYRLQHPWVGIVNRSQADINKNVDMMLARRKEREYFDTSPDYGHLASKMGSEYLAKLLSKHLESVIRTRIPSILSLINKSIEELERELDRMGRPVAVDAGAQLYTILEMCRAFDKIFKEHLDGGRPGGDRIYGVFDNQLPAALKKLPFDRHLSLQSVKKIVSEADGYQPHLIAPEQGYRRLIEGALGYFRGPAEASVDAVHYVLKELVRKSISETEELKRFPSLQVELAAAANSSLEKFREESKKSVIRLVDMESAYLTAEFFRKLPQEIERPVTNSKNQTASPSSATLDQYGDGHFRRIASNVSAYVNMVSDTLRNTIPKACVYCQVRQAKLALLNYFYSQISKREGKQLGQLLDEDPALMDRRLECAKRLELYKKARDEIDAVAWVR”, the “soluble on expression in E. coli” value is “not soluble”.

For “MSLSKSRKIDVHAHVLPKNIPDFQEKFGYPGFVRLDHKEDGTTHMVKDGKLFRVVEPNCFDTETRIADMNRANVNVQCLSTVPVMFSYWAKPADTEIVARFVNDDLLAECQKFPDRLVPLGTLPMNDVQRAVEEVKRCVSMGIKGFEVGSHVAEKSLDHRDFWPLYKICEELSVVLFVHPWDMHMWDGRLDKYWMPWLVGMPSETAQAICSVLMGNILVLFPKLKLCFAHGGGAYPQIRGRVSHGWNVRPDLCAGKCKVAPNKLDGLLWTDSLVHDPKALELLINTVGKEHIVLGTDYPFPLGELEVGRVVEEYKPFSAKDREDLLWKNAVKMLDIDENLLFNKDFEGHHHHHH”, the “soluble on expression in E. coli” value is reported as “not soluble”.

For “MGHHHHHHSHMSVSVHENRKSRASSGSINIYLFHKSSYADSVLTHLNLLRQQRLFTDVLLHAGNRTFPCHRAVLAACSRYFEAMFSGGLKESQDSEVNFDNSIHPEVLELLLDYAYSSRVIINEENAESLLEAGDMLEFQDIRDACAEFLEKNLHP”, the “soluble on expression in E. coli” value is given as “not soluble”.

For the sequence “MDLGSFGRIPPQNIEAEQSVLGAILLDKEVLSSVTEIISSQDFYREDHREIFEAIMDLYEKGEPIDLITVAEQLKVRGSLEAVGGLEYLTNLASLVPTTANAKHYAKIVEEKSILRRLIKASSEIINMGYEAAEEVSYVLDKAEKSIFDVLQKRNTQGFALIKDVLIDTFNRLEELYNNKGYITGIPTGFVDLDYKTAGLQNSDLILIAARPAMGKTSFVLNIAQYAAIHAKVPVAIFSLEMSKEQLVNRMLCCEAMVDSQKMRTGKLEDSDWQKVARALGPLSEAPIYIDDTPGLSVAEIRAKCRRLKLEKNLGLVVIDYLQLMQGRGKSESRQQEISEISRSLKILAKEINVPVLTLSQLSRAPELRSDHRPILSDLRESGAIEQDADIVMFLYRDDYYNPDTEKKNIAEVIIAKHRNGSTGTVELAWLGQYTKFANLEKYRQ”, the “soluble on expression in E. coli” value is given as “not soluble”.

Take “MPENLQLVIITGMSGAGKTVAVQSFEDMGYFCIDNLPPSLIPKFWELIKESGKVTKIALVIDLRSRTFFREIQDMLVELENTNFIDTTILFLDATDEELVSRYKETRRAHPMAMDGLVTEGIRKERAMLEEIKADAQLVIDTTDLSPRQLRERLNKELATRETHEFRVEMVSFGFKYGLPIDADIVMDVRFLPNPHYIDELRPLTGMDQPVYDYVMGFPETDEFYTKFIDLLRTVLPGYKKEGKSSVTIAIGCTGGQHRSVALTERVGAELKEEDYHVNITHRDRLKRKETVNRS”: the “soluble on expression in E. coli” value is listed as “not soluble”.

Take “MGSDKIHHHHHHMSVVNKIIGVCRFSYLGLGGFRINEAGAEEAAKALYAADRMTLRFAYFETICLPSLAAQTDSDFTFVALIADTMPLPFRQRLKRLTETYPFLRIAVLESTGPYNSTRRAFSRGLDGQETDFITGFRLDDDDAVSVDYIARTREAADTLITLGWATKDDPAAVCFHRGIYWDMKRPDAPFWDYSEIQPLGLASAMVHHRDSRQNIYRWNHRKLASKVRCWTDPSDVMFLRTLHDHNDSGRVMPRDAEQIPDEQARRLLKDRFGLNPKRLLSTMDRVHGGTDAARQWAAETREDPFGKDGDA”: the “soluble on expression in E. coli” value was “not soluble”.

As for “MKKVSSQILHQLRSQRGQSGMWCTNLTHSSTTHHQHPRQTSSHLLQRLESAPCLLKLSTTLLCLEIQQSMSLHPKEAILTTPDAVHREKMLTRSRKGDQTHEDQTDGTRKARNNIGPPNLFWITAKFQEQSTKMPNCWCLQLVNCAQSSILIGLWML”, the “soluble on expression in E. coli” value is recorded as “not soluble”.

Turning to “MAPTQAGHDTAYLKETVGEALARGCAAAISAQPNDPVEYLGLWLLKYVKNAEVEGNFYRERQQDLQKKKDRLVKEAQSEQAAKSVALTRKEAADALALVTAEPRELLEAAVKLVKQHTAAGAAYAAVVAEPEEPDWVAPEDDEAAAVETEDEAAGGAALAEGEEPPPEPEPEPEAAPEDGEGDAPAPKIPRPVDYSKKYFAYVAASAGQEHVLEADLYRPAPPPEDADEDFKPEPLPYSFRVLDEKLPMLYVPNVAAEERVKFFRKFPKIGSYQACGVALPASGEFKALLAADTLFPEGSGQPLSADDRDFVWEVSQSLSRALEAVQARAAEALAATSAAEAVEELKAKVAELREQAAAEAAAAAPPPPAEGEEGEGEAPPAEEEPPAEEEAEEEEEEAEEGAEEGAEEGEEGEEAPPKPKKKKKVFNPIPGLQAAIEKLTAAAEAATEADARAQAAVALEKQALDEVVALASSHSDATLSSLRNMLSVPQGTYHVVKALLHLLGRPAASFSTWKRAHSHFSPRLFEDMAAYDATAERDMAVWGRVRSCYKAAPAAKKLDAEMPNTLFGSVALMYIKQVRRVARKAVLQRELAAKLAKAQQDLADKQAALVEAERVKAEREAEEARLAAEAEAAAAAEAEAAARAAAEAEAAAAAEAAAEAAAEAAAAAAEAAAEAGEGEAVAEREAAPAEAEAAPAEGEAAPPAEGEGEAQPAQEGSNSSSSSSDSSSSEESKAAAE”, the “soluble on expression in E. coli” value is given as “not soluble”.

In the case of “MGSSHHHHHHSSGLVPRGSHMMIVIMDNGGQYVHRIWRTLRYLGVETKIIPNTTPLEEIKAMNPKGIIFSGGPSLENTGNCEKVLEHYDEFNVPILGICLGHQLIAKFFGGKVGRGEKAEYSLVEIEIIDEDEIFKGLPKRLKVWESHMDEVKELPPKFKILARSETCPIEAMKHEELPIYGVQFHPEVAHTEKGEEILRNFAKLCGEL”, the “soluble on expression in E. coli” value is “soluble”.

As for “MSQDLQKEVASRKTFAIISHPDAGKTTITEQLLLFGGVIRSAGTVKGKKSGKFATSDWMEIEKQRGISVTSSVMQFDYNGSRINILDTPGHSDFSEDTYRTLMAVDSAVMVIDAAKGIEAQTLKLFKVCRMRGIPIFTFINKMDRQGKMPLELLAELEEVLGIESYPMNWPIGMGKELAGLYDRYHRVIEQYRSEEDERFLPLGEDGDLKEAHAIQKSLYYDQALEEIMLLDEAGNDFSRERIIAGEQTPVFFGSALTNFGVETFLRTFVDFAPAPSSHESNEGVIEADNPKFSGFIFKIQANMNPAHRDRIAFIRICSGEFERGMNVTLTRTGKSLKLANSTQFMADDRETVNRAVAGDIIGLYDTGNYQIGDTITNGSKKLEFEKLPQFTPELFMRVYAKNVMKQKHFHKGVEQLVQEGAIQLFKTWRTEEYIIGAVGQLQFEVFEHRMRGEYNSEIRMEPIGKKIARWVKEEDADEKLSTARSMLVKDRFDQPLFLFENEFAINWFNDKNPDIELTSLL”, the “soluble on expression in E. coli” value is “not soluble”.

As for “MYKPKNINSVLTFYKDQIQLVVSDDQNQFNILFYQTIDNDGFYSKQQLKNKLRLKLALNQLVDQANYFLGFKLEKVVVVLAELIDDLKIHNFKSEIFFTGYDFDHKAMIKKEKQRFCEQNNQLTVMDTMVLNYHDVINNKITKSFAFNKSYVANLVAYSSKSNLIGELKFFLKRNVNLKVKKIISHHLALANSLSKKQNNMFVYLGQKTTELMLFMDNALVDVITNQFGKNHFIDIPANQENKPLLEFLVDNTTKIGDCYSLGMTYTDGDSYKEIKALTIGDLMQTVSDKIKTLIDFINSGSLTFFNKFKTLPKLLYFYTRSKQITNLFQANVALINPQFKTVDIYKNKIQFISENYLLSCEAISLQITNRIKNQISFDFTNADNIQKPKPKKHFMILSKHLTKFVQRLVK”, the “soluble on expression in E. coli” value is “soluble”.

Consider “MDQFVNHLSCTALLVGKKASVDGSTMIARNEDASGGINPKRFIVVQPADQPQRYVSTFNGFQLDLPQTPLQYTCTPVADQSHGTWGEAGINSENVAMSATETEFTNTTMLGLDPLEPDGIGEEAMLTVVLPYIHNAREGVERLGELVTKYGTCESNGIAFSDANEIWYFETVGGHHWAAERIPDDRYVLAPNQTGIQEIDFQAPEHYKYSADLKDFAAKYHLNKAKEGFNFRDIFGEDTQADHYYNTPRVWYAQKMLNPEIDQDPESRTMPFSRVPSHLISVEDVAMVLSSHYQATDFDPYGQTGTPETRRRYRPIGMNRNQEMHILQIRPNMPKSHAAIHWLAEGVNIFNSPVPFFANCTTTPENFQYTPIDKSSTDSFYWLNKLIAMVADPLFAEHDWDAEFAVSESRKFGFAAGRAAVAKGDAAFADVKPEDLPAWHDALNAETAATITNDLQYLLHQLVCIRAEKMTPSFEKGGELLEHHHHHH”, for which the “soluble on expression in E. coli” value was “not soluble”.
